Test [1] has as its target EBOV GP (Ebola virus , Mayinga) (UniProt Q05320). In words: cell-based or functional assay.
Test [2] shares this target.
Test [3] shares this target. This is another data set of the same source.

“And” between values parts separate entries of the source, which are not always exact repeats. Equal entries are not always repeated.

Broadly, the EC50 is the concentration giving half of the maximal effect.

Chain of UniProt Q05320 (Q05320 33-501, chain 1 of 2): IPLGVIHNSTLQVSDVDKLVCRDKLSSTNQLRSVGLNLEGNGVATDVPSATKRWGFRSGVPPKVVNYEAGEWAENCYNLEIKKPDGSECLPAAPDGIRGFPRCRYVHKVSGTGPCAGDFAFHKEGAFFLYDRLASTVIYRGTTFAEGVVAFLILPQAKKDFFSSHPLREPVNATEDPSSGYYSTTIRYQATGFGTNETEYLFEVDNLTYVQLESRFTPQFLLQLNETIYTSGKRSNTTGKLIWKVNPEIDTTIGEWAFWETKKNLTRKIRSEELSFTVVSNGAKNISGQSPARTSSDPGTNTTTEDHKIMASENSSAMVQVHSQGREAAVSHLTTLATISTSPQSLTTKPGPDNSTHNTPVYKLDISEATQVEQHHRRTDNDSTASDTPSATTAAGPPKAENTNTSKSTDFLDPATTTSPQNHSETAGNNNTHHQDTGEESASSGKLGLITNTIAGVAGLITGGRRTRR
Chain of UniProt Q05320 (Q05320 502-650, chain 2 of 2): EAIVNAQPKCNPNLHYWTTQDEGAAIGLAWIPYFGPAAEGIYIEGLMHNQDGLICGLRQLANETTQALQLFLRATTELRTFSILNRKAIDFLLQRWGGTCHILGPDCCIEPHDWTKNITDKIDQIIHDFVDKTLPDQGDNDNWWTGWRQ

As to 13C6 (antibody), the neutralization at 10 µg/mL in test [1] was < 20%.

Regarding KZ52 (antibody), the maximum inhibition of input virus in test [1] was 80% and 90%.

B1: EVB167 (antibody, V domains shown)
VH: AVQLVQSGAEVKKPGTTVKISCKVSGYTFIQEYIHWVQQAPGKGLVWMGLGDPENNETLYSEDFQGRVTMTADTSSDTAYLELRSLTFADTAVYFCTSRKSWWGQGTLVTVAS
VL: ELVLTQSPGTLSLSPGESATLSCRASQSLSSDSVSWFQQKPGQAPRLVIHGTSKRATGIPDRFSGGGSGTDFTLTIARLEPEDFAVYYCQRSGYGMSVTWTFGQGTTVEIK
Consider B1, for which, in test [2], the Abs 450 (1/27) came out at 2.97 Abs 450 and the Abs 450 (Und.) was 3.37 Abs 450.

B2: EVB165 (antibody, V domains shown)
VH: DVQLVESGGGVVQPGGSLKLACVVSGFRFSDYWMSWVRQAPGKGLEWVANIKQDGSGKYYVDSVKGRFTVSRDNAKNSLYLHMTSLGAEDTAVYFCARAAPTGSYTNILVDNVHFDYWGQGILVAVSS
VL: GIQLTQSPGSLSASVGDSVTITCRPNQNIATYINWYQQTPGKAPKLLIYAASILQSGVPSRFSGAGSGTHFTLIISTLQPEDSATYYCQQSYSTPWTFGQGTKVEIK
B2: in test [2], the Abs 450 (1/27) was 1.72 Abs 450 and the Abs 450 (Und.) was determined as 3.17 Abs 450. Further, the maximum inhibition of input virus in test [1] amounted to 100%. Also, the EC50 in test [3] was > 1 µg/mL.

B3: EVB100 (antibody, V domains shown)
VH: QVQLQESGPGLVKPSDTLSLTCTVSGGSLSSFYWSWIRQPPGKGLEWIGYIYYSGSPNYSPSLESRVTMSVDTTRNQISLKLDSVTAADTAVYYCVRASRSYYWGSYRPTAFDSWGQGTLVTVSS
VL: SYELTQPLSVSVSPGQTAIFTCSGDNLGDKYVCWFQQRPGQSPMLLIYQDNKRPSGIPERFSGSNSGNTATLTISGTQSTDEADYYCQTWDSTVVFGGGTKLTVL
B3 showed a maximum inhibition of input virus in test [1] of 100%. In test [3], this molecule gave an EC50 of 0.26 µg/mL.

B4: EVB114 (antibody, V domains shown)
VH: EVQLVESGGGLIQPGGSLRLSCAASGFALRMYDMHWVRQTIDKRLEWVSAVGPSGDTYYADSVKGRFAVSRENAKNSLSLQMNSLTAGDTAIYYCVRSDRGVAGLFDSWGQGILVTVSS
VL: DIQMTQSPSSLSASVGDRITITCRASQAFDNYVAWYQQRPGKVPKLLISAASALHAGVPSRFSGSGSGTHFTLTISSLQPEDVATYYCQNYNSAPLTFGGGTKVEIK
As to B4, the maximum inhibition of input virus in test [1] was 100%. In test [3], this molecule gave an EC50 of 0.07 µg/mL and a maximal binding, higher than the other antibodies of 100%.

These data come from patent publication US20190071489A1.
